System: P2-P3 promoter region
Assay: DNase I footprinting of SarA binding to the agr regulatory region
Parameters: species or system Staphylococcus aureus
Details: 40 pM 32P-labeled DNA; regions A1, A2, B1, B2, C1, C2
Method: To test this notion and identify binding sites for SarA in this region, DNase I footprinting was perfomred with the purified SarA. […] The data were quantified by phosphorimaging.
SarA was allowed to bind to the DNA in a reaction mixture containing 40 pM of ^32P-labeled DNA, 10 mM Hepes (pH 7.6), 5 mM MgCl2, 1 mM CaCl2, 1 mM DTT, and 100 mM KCl at room temperature for 30 minutes. An amount of DNase I, which produced approximately 50% non-nicked DNA, was added to the reaction mixture and incubated for 2 minutes. The reaction was quenched by addition of stop solution (80% EtOH, tRNA (1 ug/ml), 0.3 M NH4OAc) and immediately put into a dry ice/EtOH bath for 30 minutes. A visible pellet was obtained after centrifugation and washed with 70% ethanol. Following denaturing gel electrophoresis, the DNA fragments were detected and quantified by phosphoimaging. The radioactivity in the bands for samples containing SarA was subtracted from the no protein control using Microsoft Excel. The concentration of SarA required to protect a cleavage site fully was determined. To identify the regions of protection within the inter-promoter region, purine sequencing was included in the analysis. Chemical sequencing was done according to standard procedures.

B1: SarA: purified full-length recombinant S. aureus (strain DB) SarA protein expressed in E. coli (protein)
chain: AITKINDCFELLSMVTYADKLKSLIKKEFSSISFEEFAVLTYISENKEKEYYLKDIINHLNYKQPQVVKAVKILSQEDYDKKRNEHDERTVLILVNAQQRKKIESLLSRVNKRITEANNEIEL
With B1 the “SarA concentration at which the footprinted regions were protected by more than 50%” value was 3 to 6 pM.

Reference: patent US6699662B1, “Inhibitors of staphylococcus SarA protein function involved in the expression of staphylococcal virulence factors and the use thereof in treating staphylococcal infections” (priority 1999, dated 2004)
